Blank lines part the entries; values can stand above or below the binder they belong to.
Assays:
[1] = target: T1, human AXL expressed on the cell surface of tumor cell lines (human, UniProt P30530 26-894); assay: FACS on MDA-MB-231 luciferase cells, apparent Kd, human Fc format
T1 construct: whole, on cells; also called cell surface-expressed AXL; cell-based AXL
T1 sequence (looked up): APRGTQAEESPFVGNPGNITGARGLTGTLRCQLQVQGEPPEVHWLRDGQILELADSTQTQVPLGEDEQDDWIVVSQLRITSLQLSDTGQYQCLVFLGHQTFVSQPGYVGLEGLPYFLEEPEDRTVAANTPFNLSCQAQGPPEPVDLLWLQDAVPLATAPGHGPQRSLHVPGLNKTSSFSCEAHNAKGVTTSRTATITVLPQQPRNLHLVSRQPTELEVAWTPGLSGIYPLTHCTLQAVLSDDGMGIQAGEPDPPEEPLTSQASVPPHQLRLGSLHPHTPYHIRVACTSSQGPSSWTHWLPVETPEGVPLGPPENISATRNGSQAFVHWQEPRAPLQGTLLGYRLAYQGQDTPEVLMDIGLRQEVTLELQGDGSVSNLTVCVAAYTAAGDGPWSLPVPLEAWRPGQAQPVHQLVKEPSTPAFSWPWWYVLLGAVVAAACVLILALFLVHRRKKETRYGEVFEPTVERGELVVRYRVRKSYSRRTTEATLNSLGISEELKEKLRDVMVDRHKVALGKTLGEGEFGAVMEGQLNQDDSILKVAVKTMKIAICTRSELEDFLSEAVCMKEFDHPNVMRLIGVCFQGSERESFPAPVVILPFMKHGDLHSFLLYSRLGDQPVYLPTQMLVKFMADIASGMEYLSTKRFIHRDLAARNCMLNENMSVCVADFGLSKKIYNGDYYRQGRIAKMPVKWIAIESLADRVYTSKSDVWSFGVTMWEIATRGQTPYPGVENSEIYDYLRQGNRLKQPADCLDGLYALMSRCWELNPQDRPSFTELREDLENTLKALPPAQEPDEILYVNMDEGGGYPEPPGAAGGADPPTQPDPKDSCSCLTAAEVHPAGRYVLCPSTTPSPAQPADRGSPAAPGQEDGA
Protocol: (§1) FACS binding assay. Adherent cells were dissociated with non-enzymatic Sigma Cell Dissociation Solution (Cat. No. C5789). Cells suspensions were added to polypropylene, V-bottom 96-well plates and incubated for 2 hours on ice with primary antibodies at concentrations ranging from 100 nM to 0.001 nM or at a single dose of 100 nM (for the non-specific control). After incubation and washes, cells were incubated with fluorescently labeled secondary antibody (Alexa Fluor® 488 anti-human IgG from Jackson Cat. No 709-546-098) for 1 hour on ice, then washed. Cell viability was determined using Fixable viability dye 450 (20 min on ice). Stained cells were fixed in 1% formaldehyde at 4° C. and stored at 4° C. until acquisition which was performed the next day.
(§2) Binding of recombinant chimeric Abs to three cell lines was assessed by FACS as described above. The apparent Bmax and Kd determination is shown below in Table 14.

[2] = target: T1, human AXL expressed on the cell surface …; assay: FACS on SKOV3 cells, apparent Kd, human Fc format
Protocol: as §1, §2

[3] = target: T2, recombinant cynomolgus AXL extracellular domain (cynomolgus); assay: SPR Biacore T200, mAb captured on anti-Fc, AXL ECD flowed, single-cycle kinetics
T2 construct: range 1-449; also called Cyno AXL; cyno AXL ECD
Protocol: (§3) Surface plasmon resonance. For murine mAbs, binding to human and cynomolgus AXL ECD was assessed using a Biacore T200 instrument. Briefly, either anti-mouse or anti-human Fc antibody was immobilized on a research-grade CM5 series S sensor chip using amine coupling in acetate buffer. Murine or recombinant chimeric murine-human mAbs (mouse VH/VL; human constant regions) were captured, then recombinant human or cyno AXL ECD was flowed over the surface at different concentration ranges (0.1-500 nM) depending on the antibody. The running buffer was PBS/Tween-20 and the flow rate 100 uL/min. All binding studies were performed at 25° C. Surfaces were regenerated using 10 mM glycine, pH 1.5.

[4] = target: T3, recombinant human AXL extracellular domain, C-terminally His8-tagged (rhAXL-ECD) (human, UniProt P30530 26-451); assay: as above
T3 construct: Made in CHO cells; also called (rh)AXL-ECD His8; human AXL ECD
T3 sequence: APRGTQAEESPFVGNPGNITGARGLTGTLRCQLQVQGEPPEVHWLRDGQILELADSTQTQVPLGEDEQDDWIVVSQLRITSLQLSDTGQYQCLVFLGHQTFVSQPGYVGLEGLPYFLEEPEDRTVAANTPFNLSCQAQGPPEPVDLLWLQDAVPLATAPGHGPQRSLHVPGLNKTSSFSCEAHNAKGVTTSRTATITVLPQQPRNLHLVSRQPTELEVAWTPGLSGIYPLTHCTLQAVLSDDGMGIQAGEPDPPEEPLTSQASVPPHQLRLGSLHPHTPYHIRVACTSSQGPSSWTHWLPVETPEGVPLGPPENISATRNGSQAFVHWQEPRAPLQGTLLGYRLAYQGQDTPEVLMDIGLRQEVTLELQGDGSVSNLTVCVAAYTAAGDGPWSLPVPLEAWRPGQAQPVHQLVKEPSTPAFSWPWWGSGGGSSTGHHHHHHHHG
Protocol: as §3

[5] = target: T3, recombinant human AXL extracellular …; assay: ELISA on coated AXL ECD (100 ng/well), HRP-protein A
Protocol: ELISA. ELISAs against human, cyno and mouse AXL ECDs were conducted by immobilizing 100 ng of each protein in wells of Nunc MaxiSorp microplates overnight. Human AXL (aa 1-451) and cyno AXL (aa 1-449) were produced recombinantly as described in Example 10. Mouse AXL was purchased from Sino (cat. 51026-M08H). The next day, plates were blocked with 5% (w/v) dried milk in PBS. Murine mAbs (either hybridoma- or recombinantly-produced) or VHH-Fcs were diluted in PBS containing 1% BSA and 0.1% Tween-20 and added to wells for 2 hours at room temperature. Wells were washed 5× with PBS containing 0.1% Tween-20, then HRP-labeled protein A (diluted 1:1000 in PBS containing 1% BSA and 0.1% Tween™-20) was added to wells for 1 hour at room temperature. Wells were washed again 5× with PBS/0.1% Tween-20 and developed using TMB substrate. Absorbance was measured at 450 nm. As a positive control for mouse AXL binding, a commercial anti-mouse AXL mAb (clone 175128, R&D Systems MAB8541, rat IgG2A) was used and detected with donkey […] secondary antibody.

- Kd [1]: 233 pM
- Kd [2]: 112 pM
B1: NRC-sdAb001-Fc (VHH-human IgG1 Fc fusion) (Fc fusion)
chain: QVKLEESGGGLVQAGGSLRLSCTASASISSFDIMGWYRQAPGKQRELVAAITTLDIANYRDSVKGRFTISRDNAKNTVYLQMDSLKPEDTARYHCAAFQSDQNYWGQGTQVTVSS
notes: VHH fused N-terminally to human IgG1 Fc, made in HEK293 cells; also called NRC-sdAb0001-Fc; NRC-sdAb001-hIgG1; not shown: human IgG1 Fc

- Kd [3]: 500 pM
- koff [3]: 0.00043 s⁻¹
- kon [3]: 820000 M⁻¹ s⁻¹
- Kd [4]: 500 pM
- kon [4]: 1.1e+06 M⁻¹ s⁻¹
- EC50 [5]: 2000 pM
B2: hFC-F107-10G1 (antibody, human IgG1, kappa, V domains shown)
VH: EVNLVESGGGVVKPGASLKLSCEASGFTFSNYGMSWVRQTSDKRLEWVASISGGGGRTYYLDNVKGRFIISRENAKNTLYLQMSSLKSEDTALFYCARGARASYFAMDYWGQGSSVTVSS
VL: VIVMTQSHKFMSTSVGDRVSITCKASQDVTTAVAWYQQKPGQSPKLLIYWASTRHTGVPDRFTGSGSGTDYSLTISNVQTEDLAFYYCQQHFTTPLTFGAGTKLELKR
notes: Chimeric mAb, human IgG1 / human kappa constant regions; also called mAb F107-10G1
